These are literature values, as cited in article PMC4596410.

This data set addresses Lys115 (UniProt position 115, LSAYPKKLGYP).

Turning to “Acetoacetate decarboxylase (not stated in the article (Clostridium acetobutylicum inferred))”, the pKa is 6.

The term pKa denotes the pH at which an ionisable group is half protonated.
